In publication PMC10724065, “Evolution of a plant growth-regulatory protein interaction specificity” (Nature Plants, 2023):

B1: Arabidopsis thaliana AtSLY1 (yeast bait fusion) [Arabidopsis thaliana] / A. thaliana GAI (yeast prey fusion) [Arabidopsis thaliana] (parent complex)
chain 1: MKRSTTDSDLAGDAHNETNKKMKSTEEEEIGFSNLDENLVYEVLKHVDAKTLAMSSCVSKIWHKTAQDERLWELICTRHWTNIGCGQNQLRSVVLALGGFRRLHSLYLWPLSKPNPRARFGKDELKLTLSLLSIRYYEKMSFTKRPLPESK
chain 2: MKRDHHHHHHQDKKTMMMNEEDDGNGMDELLAVLGYKVRSSEMADVAQKLEQLEVMMSNVQEDDLSQLATETVHYNPAELYTWLDSMLTDLNPPSSNAEYDLKAIPGDAILNQFAIDSASSSNQGGGGDTYTTNKRLKCSNGVVETTTATAESTRHVVLVDSQENGVRLVHALLACAEAVQKENLTVAEALVKQIGFLAVSQIGAMRKVATYFAEALARRIYRLSPSQSPIDHSLSDTLQMHFYETCPYLKFAHFTANQAILEAFQGKKRVHVIDFSMSQGLQWPALMQALALRPGGPPVFRLTGIGPPAPDNFDYLHEVGCKLAHLAEAIHVEFEYRGFVANTLADLDASMLELRPSEIESVAVNSVFELHKLLGRPGAIDKVLGVVNQIKPEIFTVVEQESNHNSPIFLDRFTESLHYYSTLFDSLEGVPSGQDKVMSEVYLGKQICNVVACDGPDRVERHETLSQWRNRFGSAGFAAAHIGSNAFKQASMLLALFNGGEGYRVEESDGCLMLGWHTRPLIATSAWKLSTN

Variants of: B1
Test: yeast 2-hybrid; parent: 0.35; read off a plot

Going from chain 1 P114L, chain 1 E138K to chain 1 P114L, the response falls from ~77 β-galactosidase units to ~25 β-galactosidase units.

First: chain 1 E138K
Second: chain 1 T128A, chain 1 E138K
The response of the first is lower: ~17 β-galactosidase units for the first, ~110 β-galactosidase units for the second.

In the case of chain 1 H104Y, chain 1 E138K, the response is reported as ~160 β-galactosidase units.

Variants of: B1
Test: yeast 2-hybrid; parent: 0.3; read off a plot

Compared with chain 1 T128S, chain 1 P114L is lower in response: ~44 β-galactosidase units for the first, ~37 β-galactosidase units for the second.

Compared with chain 1 P114S, chain 1 E138K is lower in response: ~41 β-galactosidase units for the first, ~15 β-galactosidase units for the second.

Going from chain 1 K126N to chain 1 K126E, the response falls from ~51 β-galactosidase units to ~19 β-galactosidase units.

In the case of chain 1 K126T, the response is reported as ~24 β-galactosidase units.

Variants of: B1
Test: yeast 2-hybrid; parent: 0.35; read off a plot
Remark: another data set of the same source

Compared with chain 1 P114L, chain 1 P114S is lower in response: ~63 β-galactosidase units for the first, ~55 β-galactosidase units for the second.

Going from chain 1 P114H to chain 1 P114A, the response rises from ~77 β-galactosidase units to ~89 β-galactosidase units.

Compared with chain 1 P114R, chain 1 P114T is lower in response: ~94 β-galactosidase units for the first, ~34 β-galactosidase units for the second.

Variants of: B1
Test: pull-down (IP: His, immunoblot); without GST-GID1C, without GA3 (GAI in A Form); parent: 1

Compared with chain 1 P114L, chain 1 E138K is lower in ratio to parent: 1.89 for the first, 1.86 for the second.

Variants of: B1
Test: pull-down (IP: His, immunoblot); with GST-GID1C, with GA3 (GAI in A + A' Forms); parent: 2.41

Going from chain 1 P114L to chain 1 E138K, the response falls from 7.38 relative anti-MBP band intensity (SLY1 without GST-GID1C and GA3 = 1.00) to 3.88 relative anti-MBP band intensity (SLY1 without GST-GID1C and GA3 = 1.00).

Variants of: B1
Test: yeast 2-hybrid; parent: 0.3; read off a plot
Remark: another data set of the same source

In the case of chain 1 H104F, the response is reported as ~100 β-galactosidase units.

Variants of: B1
Test: yeast 2-hybrid; parent: 0.38; read off a plot

With chain 1 K126R the response was ~0.26 β-galactosidase units.
